Residue numbers refer to the chain shown, from its start. Names and notes keep the numbering of the source.

This note sets out measurements from patent US20260022175A1 (Chugai, published 2026).

T1: human FcγRIIb extracellular domain with C-terminal His-tag (human, UniProt P31994 43-217)
T1 construct: extracellular domain; also called hFcγR IIb
T1 sequence (looked up): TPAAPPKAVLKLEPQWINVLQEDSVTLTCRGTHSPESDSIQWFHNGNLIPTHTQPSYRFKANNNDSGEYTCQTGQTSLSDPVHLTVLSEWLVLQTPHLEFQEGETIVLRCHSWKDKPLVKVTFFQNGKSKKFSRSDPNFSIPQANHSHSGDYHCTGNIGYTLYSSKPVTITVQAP

T2: human FcγRIIa H allotype extracellular domain with C-terminal His-tag (human, UniProt P12318 34-217)
T2 construct: extracellular domain; also called hFcγR IIa H
T2 sequence (looked up): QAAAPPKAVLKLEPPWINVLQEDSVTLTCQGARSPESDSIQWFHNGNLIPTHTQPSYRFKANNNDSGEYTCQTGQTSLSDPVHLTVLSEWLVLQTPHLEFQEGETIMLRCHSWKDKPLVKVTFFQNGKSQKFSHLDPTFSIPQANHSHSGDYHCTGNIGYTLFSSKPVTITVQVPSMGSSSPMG

T3: human FcγRIIa R allotype extracellular domain with C-terminal His-tag (human, UniProt P12318 34-217)
T3 construct: extracellular domain; also called hFcγR IIa R
T3 sequence (looked up): T2 sequence (looked up) with H134R

B1: 04H1389-Km473/04L1615-k0MT//04H1389-Hm482/04L1615-k0MT (antibody)
heavy 1: EVQLVESGGGLVKPGGSLRLSCAASGFTFSSKTMNWVRQAPGKGLEWVSSISTQSHYIYYAESVKGRFTISRDNAKNSLYLQMNSLRAEDTAVYYCARYGKREDMLWVFDYWGQGTLVTVSSASTKGPSVFPLAPSSKSTSGGTAALGCLVKDYFPEPVTVSWNSGALTSGVHTFPAVLQSSGLYSLSSVVTVPSSSLGTQTYICNVNHKPSNTKVDKRVEPKSCDKTHTCPPCPAPEFQWGPMVFLFPPKPKDVLMISRTPEVTCVVVDVSDEEPEVKFNWYVDGVEVHNAKTKPREEQYNATYRVVSVLPVLHQDWLNGKEYKCKVSNDALPAPIEKTISKAKGQPREPQVCTLPPSREEMTKNQVSLWCLVKGFYPSDIAVEWESNGQPENNYKTTPPVLDSDGSFFLYSKLTVDKSRWQQGNVFSCSVMHEALHAHTTRKELSLSP
heavy 2: EVQLVESGGGLVKPGGSLRLSCAASGFTFSSKTMNWVRQAPGKGLEWVSSISTQSHYIYYAESVKGRFTISRDNAKNSLYLQMNSLRAEDTAVYYCARYGKREDMLWVFDYWGQGTLVTVSSASTKGPSVFPLAPSSKSTSGGTAALGCLVKDYFPEPVTVSWNSGALTSGVHTFPAVLQSSGLYSLSSVVTVPSSSLGTQTYICNVNHKPSNTKVDKRVEPKSCDKTHTCPPCPAPELLAGPSVFLFPPKPKDVLMISRTPEVTCVVVDVSHEEPEVKFNWYVDGVEVHNAKTKPREEQYNATYRVVSVLPVLHQDWLNGKEYKCKVSNDALPKPDEETISKAKGQPREPQVYTLPPSRCEMTKNQVSLSCAVKGFYPSDIAVEWESNGQPENNYKTTPPVLDSDGSFFLVSKLTVDKSRWQQGNVFSCSVMHEALHAHTTRKELSLSP
light: DIVMTQSPLSLPVTPGEPASISCQGPSTGVGDYNYVHWYQQKPGQAPRLLIYFTSKKPSGVPDRFSGSGSGTDFTLKISRVEAEDVGVYYCQTYAAPLGPMFGQGTKLEIKRTVAAPSVFIFPPSDEQLKSGTASVVCLLNNFYPREAKVQWKVDNALQSGNSQESVTEQDSKDSTYSLSSTLTLSKADYEKHKVYACEVTHQGLSSPVTKSFNRGEC
notes: Heterodimerized antibody with N434A/Y436T/Q438R/S440E
B2: 04H1389-Km462/04L1615-k0MT//04H1389-Hm445/04L1615-k0MT (antibody, human IgG1, kappa)
heavy 1: B1 heavy 1 with A439N, T441Y, R443Q, E445S
heavy 2: B1 heavy 2 with A439N, T441Y, R443Q, E445S
light: B1 light
notes: Heterodimerized antibody
B3: 04H1389-Km461/04L1615-k0MT//04H1389-Hm443/04L1615-k0MT (antibody, human IgG1, kappa)
heavy 1: B1 heavy 1 with I337E, A439N, T441Y, R443Q, E445S
heavy 2: B1 heavy 2 with K335A, D337E, A439N, T441Y, R443Q, E445S
light: B1 light
notes: Heterodimerized antibody
B4: 04H1389-Ks473/04L1615-k0MT//04H1389-Hs482/04L1615-k0MT (antibody)
heavy 1: B1 heavy 1 with C354Y
heavy 2: B1 heavy 2 with C361E
light: B1 light
notes: as for B1
B5: 04H1389-Km481/04L1615-k0MT//04H1389-Hm498/04L1615-k0MT (antibody)
heavy 1: B1 heavy 1 with I337E
heavy 2: B1 heavy 2 with K335A, D337E
light: B1 light
notes: as for B1
B6: 04H1389-Ks462/04L1615-k0MT//04H1389-Hs445/04L1615-k0MT (antibody, human IgG1, kappa)
heavy 1: B1 heavy 1 with C354Y, A439N, T441Y, R443Q, E445S
heavy 2: B1 heavy 2 with C361E, A439N, T441Y, R443Q, E445S
light: B1 light
notes: Heterodimerized antibody

T4 sequence (P55899 24-290 limits assumed, chain 1 of 2): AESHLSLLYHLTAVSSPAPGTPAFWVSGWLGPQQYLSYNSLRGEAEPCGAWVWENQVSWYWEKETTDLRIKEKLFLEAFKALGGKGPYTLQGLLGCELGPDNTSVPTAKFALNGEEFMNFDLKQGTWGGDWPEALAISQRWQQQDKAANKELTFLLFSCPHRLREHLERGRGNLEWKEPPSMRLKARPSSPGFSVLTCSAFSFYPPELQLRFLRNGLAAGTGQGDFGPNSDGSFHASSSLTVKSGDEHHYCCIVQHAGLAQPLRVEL
T4 sequence (P61769 21-119 limits assumed, chain 2 of 2): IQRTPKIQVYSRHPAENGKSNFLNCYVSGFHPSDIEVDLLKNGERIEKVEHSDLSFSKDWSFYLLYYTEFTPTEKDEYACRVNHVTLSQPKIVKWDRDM

One assay has as its target T4, human FcRn (human, UniProt P55899 24-290; P61769 21-119).
T4 construct: Prepared by the method of WO 2010/107110; also called hFcRn
The assay can be described thus: SPR Biacore T200, Ab captured via Fab-kappa, pH 6.0, steady state. In general terms: SPR reads the build-up and loss of mass on a sensor chip optically.
For the molecule B1, the Kd was 460 nM.

Regarding B2, the Kd is 1700 nM.

In turn, B3 had a Kd of 1700 nM.

Turning to B4, the Kd stood at 450 nM.

B5 came in with a Kd of 470 nM.

The molecule B6 displayed a Kd of 1600 nM.

Another assay has as its target T1, human FcγRIIb extracellular domain with …. The assay can be described thus: SPR; FcγRIIb bound amount per unit captured Ab.
Consider B1, for which the Binding amount was found to be 0.024.

Consider B2, for which the Binding amount was found to be 0.029.

Molecule B3 came in with a Binding amount of 0.024.

For B4, the Binding amount was found to be 0.026.

The molecule B5 showed a Binding amount of 0.021.

As to B6, the Binding amount worked out at 0.03.

Another assay concerns the target T4, human FcRn. The assay can be described thus: SPR; KD of 04H1389-G1m/04L1615-k0MT divided by KD of variant.
Turning to B1, the “Relative value to KD between G1m and hFcRn” value was determined as 2.8.

Regarding B2, the “Relative value to KD between G1m and hFcRn” value was 0.8.

In the case of B3, the “Relative value to KD between G1m and hFcRn” value is 0.7.

For the molecule B4, the “Relative value to KD between G1m and hFcRn” value is 2.9.

Consider B5, for which the “Relative value to KD between G1m and hFcRn” value was determined as 2.8.

Regarding B6, the “Relative value to KD between G1m and hFcRn” value turned out to be 0.8.

In another assay the target is T2, human FcγRIIa H allotype extracellular …. The assay is described as above.
Turning to B1, the “Relative value to KD between G1m and hFcγRs” value turned out to be 12.3.

In the case of B2, the “Relative value to KD between G1m and hFcγRs” value is 14.4.

B3: the “Relative value to KD between G1m and hFcγRs” value worked out at 5.7.

In the case of B4, the “Relative value to KD between G1m and hFcγRs” value worked out at 14.1.

On to B5, for which the “Relative value to KD between G1m and hFcγRs” value is 5.

With B6, the “Relative value to KD between G1m and hFcγRs” value was 15.8.

In a further assay the target is T5, human FcγRIIIa V allotype extracellular domain with C-terminal His-tag (human, UniProt P08637 17-208).
T5 construct: extracellular domain; also called hFcγR IIIa V
T5 sequence (P08637 17-208 F176V): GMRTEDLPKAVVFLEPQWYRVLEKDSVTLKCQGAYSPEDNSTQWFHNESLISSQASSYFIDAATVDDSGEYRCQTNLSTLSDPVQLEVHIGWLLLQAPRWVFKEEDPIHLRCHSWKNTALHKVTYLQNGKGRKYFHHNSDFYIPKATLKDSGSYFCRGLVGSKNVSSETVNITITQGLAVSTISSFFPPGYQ
Described as above.
Consider B1, for which the “Relative value to KD between G1m and hFcγRs” value came to 705.

As for B2, the “Relative value to KD between G1m and hFcγRs” value worked out at 811.

For the molecule B3, the “Relative value to KD between G1m and hFcγRs” value was determined as 1620.

As to B4, the “Relative value to KD between G1m and hFcγRs” value is 760.

As to B5, the “Relative value to KD between G1m and hFcγRs” value was 1470.

Turning to B6, the “Relative value to KD between G1m and hFcγRs” value turned out to be 830.

Another assay has as its target T3, human FcγRIIa R allotype extracellular …. The description is as above.
On to B1, for which the “Relative value to KD between G1m and hFcγRs” value came to 8.2.

In the case of B2, the “Relative value to KD between G1m and hFcγRs” value turned out to be 9.5.

Take B3: the “Relative value to KD between G1m and hFcγRs” value was determined as 5.8.

For B4, the “Relative value to KD between G1m and hFcγRs” value worked out at 9.

As for B5, the “Relative value to KD between G1m and hFcγRs” value was determined as 5.1.

As to B6, the “Relative value to KD between G1m and hFcγRs” value is 9.1.

Another assay deals with T6, human FcγRIa extracellular domain with C-terminal His-tag (human, UniProt P12314 16-292).
T6 construct: extracellular domain; also called hFcγR Ia; hFcγRIa
T6 sequence (P12314 16-292): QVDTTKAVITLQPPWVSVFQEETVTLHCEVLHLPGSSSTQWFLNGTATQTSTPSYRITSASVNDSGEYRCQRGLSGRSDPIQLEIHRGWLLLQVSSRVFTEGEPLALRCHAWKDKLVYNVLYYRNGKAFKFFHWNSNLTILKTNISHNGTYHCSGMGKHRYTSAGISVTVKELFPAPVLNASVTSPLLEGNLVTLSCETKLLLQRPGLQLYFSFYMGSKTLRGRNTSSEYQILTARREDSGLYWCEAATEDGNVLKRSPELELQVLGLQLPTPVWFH
The assay is described as above.
For the molecule B1, the “Relative value to KD between G1m and hFcγRs” value is 0.7.

On to B2, for which the “Relative value to KD between G1m and hFcγRs” value stood at 0.9.

For the molecule B3, the “Relative value to KD between G1m and hFcγRs” value was 1.8.

With B4, the “Relative value to KD between G1m and hFcγRs” value was 0.9.

Regarding B5, the “Relative value to KD between G1m and hFcγRs” value was 1.1.

For the molecule B6, the “Relative value to KD between G1m and hFcγRs” value amounted to 1.

Another assay has as its target T1, human FcγRIIb extracellular domain with …. The assay can be described thus: SPR; binding amount divided by that of 04H1389-G1m/04L1615-k0MT.
As to B1, the Relative binding amount amounted to 2.1.

Molecule B2 displayed a Relative binding amount of 2.6.

B3 displayed a Relative binding amount of 2.1.

Take B4: the Relative binding amount was determined as 2.3.

B5 returned a Relative binding amount of 1.9.

For B6, the Relative binding amount was 2.6.

The next assay addresses T2, human FcγRIIa H allotype extracellular …. The assay can be described thus: SPR Biacore T200, Ab captured via Fab-kappa, pH 7.4, 25C.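 Also: each FcγR flowed as analyte over the captured antibodies, KD derived by 1:1 Langmuir or steady-state affinity fitting depending on the receptor.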
Protocol: (§1) The interaction between the generated antibodies and human FcγRs was analyzed using Biacore T200. 50 mM Na-Phosphate, 150 mM NaCl, 0.05% Tween20 (pH 7.4) was used as the running buffer, and the assay was performed at 25° C. For the sensor chip, Series S SA (GE Healthcare) chips onto which CaptureSelect Human Fab-kappa Kinetics Biotin Conjugate (Thermo Fisher Scientific) was immobilized were used. The antibodies of interest were captured onto these chips and each FcγR diluted in the running buffer was allowed to interact with them. Chips were regenerated with 10 mM Glycine-HCl (pH 1.5) and 25 mM NaOH, and assay was performed by repeatedly capturing antibodies. The dissociation constants KD (mol/L) for FcγRs of each antibody were calculated using Biacore T200 Evaluation Software 2.0, and using the 1:1 Langmuir binding model for FcγRIa and FcγRIIIa and the steady state affinity model for FcγRIIa. For FcγRIIb, the binding amount of FcγRIIb per unit amount of antibody was calculated by correcting the binding amount of FcγRIIb obtained from the sensorgram obtained by the measurement with the amount of antibody captured onto the chip surface.
The molecule B1 returned a Kd of 87 nM.

As to B2, the dissociation constant Kd worked out at 74 nM.

Molecule B3 gave a Kd of 190 nM.

Molecule B4 returned a Kd of 75 nM.

In turn, B5 had a Kd of 210 nM.

The molecule B6 came in with a Kd of 67 nM.

The target in the next assay is T5, human FcγRIIIa V allotype extracellular …. Described as above.
Protocol: as §1
Consider B1, for which the Kd is 1.3 nM.

In the case of B2, the Kd worked out at 1.1 nM.

Take B3: the Kd was 0.56 nM. This Kd is about 2-fold lower than that of the molecule before.

Molecule B4 showed a Kd of 1.2 nM.

Regarding B5, the Kd worked out at 0.62 nM.

For B6, the dissociation constant Kd turned out to be 1.1 nM.

The next assay has as its target T3, human FcγRIIa R allotype extracellular …. Described as above.
Protocol: as §1
B1 had an equilibrium dissociation constant (Kd) of 180 nM.

B2 came in with a Kd of 160 nM.

As to B3, the affinity, expressed as Kd, was 260 nM.

Regarding B4, the Kd stood at 160 nM. This Kd is about 1.6-fold lower than that of the molecule before.

As for B5, the Kd amounted to 290 nM.

B6: the Kd turned out to be 160 nM.

The target of another assay is T7, human FcγRIIIa F allotype extracellular domain with C-terminal His-tag (human, UniProt P08637 17-208).
T7 construct: extracellular domain; also called hFcγR IIIa F
T7 sequence (P08637 17-208): as the sequence (P08637 17-208 F176V) above, with V160F counted along it
The assay is described as above.
Protocol: as §1
B1 showed a Kd of 2.6 nM.

The molecule B2 registered a Kd of 2.2 nM.

B3 gave a Kd of 1.2 nM.

For B4, the dissociation constant Kd stood at 2.3 nM.

Molecule B5 had a Kd of 1.4 nM.

Molecule B6 had a Kd of 2.1 nM.

The target in another assay is T6, human FcγRIa extracellular domain with …. The assay is described as above.
Protocol: as §1
Regarding B1, the dissociation constant Kd was 0.062 nM.

B2 gave a Kd of 0.048 nM. This Kd and that of the molecule before are within 1.5-fold of each other.

Turning to B3, the Kd was 0.025 nM.

B4 yielded a Kd of 0.051 nM. This Kd is about 2-fold higher than that of the molecule before.

Regarding B5, the affinity, expressed as Kd, was 0.042 nM.

For the molecule B6, the affinity, expressed as Kd, was 0.047 nM.

What is called Kd is the concentration at which binding is half-saturated. Higher therefore signals lower affinity.
